Results on one molecule are retold here after patent US20040077045A1 (LUDWIG INSTITUTE FOR CANCER RESEARCH, published 2004).

Test [1] concerns the target T1, HLA-DR1 (DRB1*0101), purified (human).
T1 construct: mature
In words: competition on purified HLA-DR (DRB1*0101); ratio to reference peptide HA 306-318.

Test [2] deals with T1, HLA-DR1 (DRB1*0101), purified. In words: competition on purified HLA-DR (DRB1*0101) against biotinylated HA 306-318 (1 nM, pH 6); fluorescence assay.
The target in test [3] is T2, HLA-DR15 (DRB1*1501), purified (human).
T2 construct: mature
Nature of the test: competition on purified HLA-DR (DRB1*1501); ratio to reference peptide A3 152-166.

Test [4] addresses HLA-DRB4, purified (human). In words: competition on purified HLA-DR (DRB4); labelled peptide not named; fluorescence assay.
Test [5] addresses T3, HLA-DR11 (DRB1*1101), purified (human).
T3 construct: mature
In words: competition on purified HLA-DR (DRB1*1101); ratio to reference peptide HA 306-318.

Test [6] concerns the target T4, HLA-DR4 (DRB1*0401), purified (human).
T4 construct: mature
Nature of the test: competition on purified HLA-DR (DRB1*0401) against biotinylated HA 306-318 (30 nM, pH 6); fluorescence assay.

Test [7] addresses T5, HLA-DR7 (DRB1*0701), purified (human).
T5 construct: mature
In words: competition on purified HLA-DR (DRB1*0701) against biotinylated YKL (10 nM, pH 5); fluorescence assay.

The target of test [8] is T5, HLA-DR7 (DRB1*0701), purified. In words: competition on purified HLA-DR (DRB1*0701); ratio to reference peptide YKL.
In test [9] the target is HLA-DRB4, purified (human). Nature of the test: competition on purified HLA-DR (DRB4); ratio to a reference peptide that is not named.
In test [10] the target is T6, HLA-DR13 (DRB1*1301), purified (human).
T6 construct: mature
Nature of the test: competition on purified HLA-DR (DRB1*1301) against biotinylated B1 21-36 (200 nM, pH 4.5); fluorescence assay.

Test [11] deals with T2, HLA-DR15 (DRB1*1501), purified. Nature of the test: competition on purified HLA-DR (DRB1*1501) against biotinylated A3 152-166 (10 nM, pH 4.5); fluorescence assay.
The target in test [12] is T7, HLA-DR3 (DRB1*0301), purified (human).
T7 construct: mature
Nature of the test: competition on purified HLA-DR (DRB1*0301) against biotinylated MT 2-16 (100 nM, pH 4.5); fluorescence assay.

Test [13] concerns the target T4, HLA-DR4 (DRB1*0401), purified. Nature of the test: competition on purified HLA-DR (DRB1*0401); ratio to reference peptide HA 306-318.
For test [14], the target named is T3, HLA-DR11 (DRB1*1101), purified. In words: competition on purified HLA-DR (DRB1*1101) against biotinylated HA 306-318 (20 nM, pH 5); fluorescence assay.
The target in test [15] is T8, HLA-DRB5 (DRB5*0101), purified (human).
T8 construct: mature
Nature of the test: competition on purified HLA-DR (DRB5*0101) against biotinylated HA 306-318 (5 nM, pH 5.5); fluorescence assay.

The target in test [16] is T9, HLA-DRB3 (DRB3*0101), purified (human).
T9 construct: mature
In words: competition on purified HLA-DR (DRB3*0101) against biotinylated LOL 191-210 (5 nM, pH 5.5); fluorescence assay.

Test [17] has as its target T8, HLA-DRB5 (DRB5*0101), purified. In words: competition on purified HLA-DR (DRB5*0101); ratio to reference peptide HA 306-318.

On to ACYEFLWGPRALVETS [peptide MAGE-3 267-282 (ACYEFLWGPRALVETS)], for which the “Ratios IC50 MAGE-3/IC50 reference” value in [1] was found to be 0.2; in test [3], 15; in test [5], 6; in [8] it was 120; in the test with HLA-DRB4, purified [9], 70; in [13] it was 18. Besides, the “Ratios IC50 MAGE-3/IC50 reference” value in test [17] was 11. In addition, the IC50 in [2] is 0.4 nM; with HLA-DRB4, purified [4] it was 2800 nM; in [6] it was 730 nM; in test [7] it was 1200 nM; in test [10] it was more than 10 µM; in test [11], 220 nM. Besides, the IC50 is more than 10 µM in [12], 150 nM in test [14], 170 nM in [15] and more than 10 µM in [16].

For orientation: IC50 means the concentration at which inhibition is half-maximal. A lower IC50 goes with greater potency in that assay.
